Legend:
VHL [1] = target: T1, VHL (Homo sapiens, UniProt P40337); experiment: FRET
VHL [2] = target: T1, VHL; experiment: Alpha assay

T1 sequence (P40337 whole entry): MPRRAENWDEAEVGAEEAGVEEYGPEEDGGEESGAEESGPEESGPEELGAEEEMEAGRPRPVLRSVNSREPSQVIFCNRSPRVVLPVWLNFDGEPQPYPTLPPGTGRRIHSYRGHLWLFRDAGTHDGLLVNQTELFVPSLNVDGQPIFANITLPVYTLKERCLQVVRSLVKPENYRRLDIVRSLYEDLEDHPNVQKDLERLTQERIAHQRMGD

- Kd (VHL [1]): 12 nM
- Kd (VHL [2]): 232 nM
B1: USP39 (protein)
chain: MSGRSKRESRGSTRGKRESESRGSSGRVKRERDREREPEAASSRGSPVRVKREFEPASAREAPASVVPFVRVKREREVDEDSEPEREVRAKNGRVDSEDRRSRHCPYLDTINRSVLDFDFEKLCSISLSHINAYACLVCGKYFQGRGLKSHAYIHSVQFSHHVFLNLHTLKFYCLPDNYEIIDSSLEDITYVLKPTFTKQQIANLDKQAKLSRAYDGTTYLPGIVGLNNIKANDYANAVLQALSNVPPLRNYFLEEDNYKNIKRPPGDIMFLLVQRFGELMRKLWNPRNFKAHVSPHEMLQAVVLCSKKTFQITKQGDGVDFLSWFLNALHSALGGTKKKKKTIVTDVFQGSMRIFTKKLPHPDLPAEEKEQLLHNDEYQETMVESTFMYLTLDLPTAPLYKDEKEQLIIPQVPLFNILAKFNGITEKEYKTYKENFLKRFQLTKLPPYLIFCIKRFTKNNFFVEKNPTIVNFPITNVDLREYLSEEVQAVHKNTTYDLIANIVHDGKPSEGSYRIHVLHHGTGKWYELQDLQVTDILPQMITLSEAYIQIWKRRDNDETNQQGA
modifications: USP39_PROTAC_V1

From article PMC12851022 (2025)
